In publication PMC6701479, “KAP1 is an antiparallel dimer with a functional asymmetry” (Life Science Alliance, 2019):

Tests used:
Atto 532–labeled HP1α = Atto 532–labeled HP1α (UniProt P45973 1-191, Atto 532 on a tripeptide (Thz-G2-C3-CONH2, thiazolidine opened) joined to the C terminus; C-terminal amide); test: cell-based or functional assay
[1] = target: the molecule itself; test: SEC-MALS; KAP1 constructs alone, 10 to 40 μM; Superose 6 10/300 GL; 20 mM Hepes pH 7.5, 300 mM NaCl, 2 mM TCEP

Sequence of Atto 532–labeled HP1α (P45973 whole entry): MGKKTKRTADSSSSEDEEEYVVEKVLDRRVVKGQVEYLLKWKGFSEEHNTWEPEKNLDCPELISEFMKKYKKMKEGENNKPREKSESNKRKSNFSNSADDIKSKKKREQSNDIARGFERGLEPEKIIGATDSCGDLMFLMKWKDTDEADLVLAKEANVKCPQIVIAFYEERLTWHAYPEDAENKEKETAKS

B1: KAP1 full-length protein (KAP1 FL, 1–835) (natural protein, human, UniProt Q13263 1-835, looked up)
chain: MAASAAAASAAAASAASGSPGPGEGSAGGEKRSTAPSAAASASASAAASSPAGGGAEALELLEHCGVCRERLRPEREPRLLPCLHSACSACLGPAAPAAANSSGDGGAAGDGTVVDCPVCKQQCFSKDIVENYFMRDSGSKAATDAQDANQCCTSCEDNAPATSYCVECSEPLCETCVEAHQRVKYTKDHTVRSTGPAKSRDGERTVYCNVHKHEPLVLFCESCDTLTCRDCQLNAHKDHQYQFLEDAVRNQRKLLASLVKRLGDKHATLQKSTKEVRSSIRQVSDVQKRVQVDVKMAILQIMKELNKRGRVLVNDAQKVTEGQQERLERQHWTMTKIQKHQEHILRFASWALESDNNTALLLSKKLIYFQLHRALKMIVDPVEPHGEMKFQWDLNAWTKSAEAFGKIVAERPGTNSTGPAPMAPPRAPGPLSKQGSGSSQPMEVQEGYGFGSGDDPYSSAEPHVSGVKRSRSGEGEVSGLMRKVPRVSLERLDLDLTADSQPPVFKVFPGSTTEDYNLIVIERGAAAAATGQPGTAPAGTPGAPPLAGMAIVKEEETEAAIGAPPTATEGPETKPVLMALAEGPGAEGPRLASPSGSTSSGLEVVAPEGTSAPGGGPGTLDDSATICRVCQKPGDLVMCNQCEFCFHLDCHLPALQDVPGEEWSCSLCHVLPDLKEEDGSLSLDGADSTGVVAKLSPANQRKCERVLLALFCHEPCRPLHQLATDSTFSLDQPGGTLDLTLIRARLQEKLSPPYSSPQEFAQDVGRMFKQFNKLTEDKADVQSIIGLQRFFETRMNEAFGDTKFSAVLVEPPPMSLPGAGLSSQELSGGPGDGP
notes: KAP1 (TRIM28, TIF1β), human, residues 1–835, complete full-length protein; His6 tag followed by a TEV protease cleavage site precedes the protein (pETDuet-1); no cleavage step is described; also called TIF1β; TRIM28; source: E. coli Rosetta (DE3) / Rosetta (DE3) pLys, purified (HisTrap, desalting, SEC)
slow residence time τ_(off,2) of HP1α on H3K9me3 chromatin fibers (smTIRF), KAP1 50 to 400 nM (Atto 532–labeled HP1α): ~3 fold | stoichiometry N [1]: 2

B2: KAP1 RBCC domain (RBCC, 23–418) (domain or fragment, human, UniProt Q13263 23-418, looked up)
chain: GEGSAGGEKRSTAPSAAASASASAAASSPAGGGAEALELLEHCGVCRERLRPEREPRLLPCLHSACSACLGPAAPAAANSSGDGGAAGDGTVVDCPVCKQQCFSKDIVENYFMRDSGSKAATDAQDANQCCTSCEDNAPATSYCVECSEPLCETCVEAHQRVKYTKDHTVRSTGPAKSRDGERTVYCNVHKHEPLVLFCESCDTLTCRDCQLNAHKDHQYQFLEDAVRNQRKLLASLVKRLGDKHATLQKSTKEVRSSIRQVSDVQKRVQVDVKMAILQIMKELNKRGRVLVNDAQKVTEGQQERLERQHWTMTKIQKHQEHILRFASWALESDNNTALLLSKKLIYFQLHRALKMIVDPVEPHGEMKFQWDLNAWTKSAEAFGKIVAERPGTNST
notes: KAP1 (TRIM28), human, RBCC domain (RING, B-box 1, B-box 2, coiled coil), residues 23–418; His6 tag and TEV site precede the protein; no cleavage step is described; also called N-terminal RBCC domain of KAP1; source: E. coli Rosetta (DE3) / Rosetta (DE3) pLys, purified (HisTrap, desalting, SEC)
stoichiometry N [1]: 2

B3: ΔKAP1 (23–812) (domain or fragment, human, UniProt Q13263 23-812, looked up)
chain: GEGSAGGEKRSTAPSAAASASASAAASSPAGGGAEALELLEHCGVCRERLRPEREPRLLPCLHSACSACLGPAAPAAANSSGDGGAAGDGTVVDCPVCKQQCFSKDIVENYFMRDSGSKAATDAQDANQCCTSCEDNAPATSYCVECSEPLCETCVEAHQRVKYTKDHTVRSTGPAKSRDGERTVYCNVHKHEPLVLFCESCDTLTCRDCQLNAHKDHQYQFLEDAVRNQRKLLASLVKRLGDKHATLQKSTKEVRSSIRQVSDVQKRVQVDVKMAILQIMKELNKRGRVLVNDAQKVTEGQQERLERQHWTMTKIQKHQEHILRFASWALESDNNTALLLSKKLIYFQLHRALKMIVDPVEPHGEMKFQWDLNAWTKSAEAFGKIVAERPGTNSTGPAPMAPPRAPGPLSKQGSGSSQPMEVQEGYGFGSGDDPYSSAEPHVSGVKRSRSGEGEVSGLMRKVPRVSLERLDLDLTADSQPPVFKVFPGSTTEDYNLIVIERGAAAAATGQPGTAPAGTPGAPPLAGMAIVKEEETEAAIGAPPTATEGPETKPVLMALAEGPGAEGPRLASPSGSTSSGLEVVAPEGTSAPGGGPGTLDDSATICRVCQKPGDLVMCNQCEFCFHLDCHLPALQDVPGEEWSCSLCHVLPDLKEEDGSLSLDGADSTGVVAKLSPANQRKCERVLLALFCHEPCRPLHQLATDSTFSLDQPGGTLDLTLIRARLQEKLSPPYSSPQEFAQDVGRMFKQFNKLTEDKADVQSIIGLQRFFETRMNEAFGDTKFSAVLVEP
notes: His6 tag and TEV site precede the protein; no cleavage step is described; source: E. coli Rosetta (DE3) / Rosetta (DE3) pLys, purified (HisTrap, desalting, SEC)
stoichiometry N [1]: 2
